The values below come from patent US20250027068.

B1: PRT-311 (protein)
chain: MQITSVWTKGVTPLTPEQFRENNEDVIHAPYLAHQGWYDITKAFDGKDNLLCGAATAGNMLHWWFDQNKTEIEAYLSKHPEKQKIIFNNQEWFDLKAAIDTKDSQTNSQLFNYFRDKAFPNLSARQLGVMPDLVLDMFINGYYLNVPKTQSTDVNRPYQDKDKRGGIFDAVFTRGDQTTLLTARHDLKNKGLNDISTIIKQELTEGRALALSHTYANVSISHVINLWGADFNAEGNLEAIYVTDSDANASIGMKKYAVGINAHGHVAISAKKIEGENIGAQVLGLFTLSSGKDIWQKLS
B2: PRT-312 (protein)
chain: MQITSVWTKGVTPLTPEQFRENNEDVIHAPYLAHQGWYDITKAFDGKDNLLCGAATAGNMLHWWFDQNKTEIEAYLSKHPEKQKIIFGNQELFDLKAAIDTKDSQTNSQLFNYFRDKAFPNLSARQLGVMPDLVLDMFINGYYLNVGKTQSTDVNRPYQDKDKRGGIFDAVFTRGDQTTLLTARHDLKNKGLNDISTIIKQELTEGRALALSHTYANVSISHVINLWGADFNAEGNLEAIYVTDSDANPSIGMKKYFVGRNAHGHVAISAKKIEGENIGAQVLGLFTLSSGKDIWQKLS
B3: PRT-295 (protein)
chain: MVTSVWTKGVTPPADFTQGEDVFHAPYDANQGWYDITKTFNGKDDLLCGAATAGNMLHWWFDQNKEYIEAYLKKHPEKQKIMFGDQELLDVRKAINTKGSQKNSELFNYFRDKAFPNLSARRLGVMPDLVLDMFINGYYLNVTKTQTTDVNRTYQEKDKRGGIFDAVFTRGDQSKLLTSRHDFKEKGLKEISDLIKQELTEGKALGLSHTYANVRISHVINLWGADFDSDGNLKAIYVTDSDSNASIGMKKYFVGVNSSGKVAISAKEIKEDNIGAQVLGLFTLSTGQDIWNQTN
B4: PRT-303 (protein)
chain: MVTSVWTKGVTPPTDFIKGEDVFHAPYDAGQGWYDITKTFNGKDDLLCGAATAGNMLHWWFDQNKEYIEAYLKKHPEKQKIMFGDQELLDVRKAINTKGSQKNSELFNYFRDKAFPNLSARRLGVMPDLVLDMFINGYYLNVTKTQTTDVNRTYQEKDKRGGIFDAVFTRGDQSKLLTSRHDFKEKGLKEISDLIKQELTEGKALGLSHTYANVRISHVINLWGADFDSDGNLKAIYVTDSDSNASIGMKKYGVGVNSAGKVAISAKEIKEDNIGAQVLGLFTLSTGQDIWNQTN
B5: PRT-304 (protein)
chain: MVTSVWTKGVTPPTDFIKGEDVFHAPYDAGQGWYDITKTFNGKDDLLCGAATAGNMLHWWFDQNKEYIEAYLKKHPEKQKIMFGDQELLDVRKAINTKGSQKNSELFNYFRDKAFPNLSARRLGVMPDLVLDMFINGYYLNVTKTQTTDVNRTYQEKDKRGGIFDAVFTRGDQSKLLTSRHDFKEKGLKEISDLIKQELTEGKALGLSHTYANVRISHVINLWGADFDSDGNLKAIYVTDSDSNASIGMKKYFVGVNSSGKVAISAKEIKEDNIGAQVLGLFTLSTGQDIWNQTN
B6: PRT-296 (protein)
chain: MVTSVWTKGVTPPADFTQGEDVFHAPYVANQGWYDITKEFNGKDDLLCGAATAGNMLHWWFDQNKEYIEAYLKKHPEKQKIMFGDQELLDVRKAINTKGSQKNSELFNYFRDKAFPNLSARRLGVMPDLVLDMFINGYYLNVTKTQTTDVNRTYQEKDKRGGIFDAVFTRGDQSKLLTSRHDFKEKGLKEISDLIKQELTEGKALGLSHTYANVRIGHVINLWGADFDSDGNLKAIYVTDSDSNASIGMKKYGVGVNSAGKVAISAKEIKEDNIGAQVLGLFTLSTGQDIWNQTN
B7: PRT-319 (protein)
chain: MTITSVWTKGVTPPTPEDFRENNEDVLHAPYVANQGWYDITKTFDGKDNLLCGAATAGNMLHWWFDQNKEEIERYLKKHPEKQKIIFNNQELFDVKAAIDTKDSQTNSKLFDYFRDKAFPNLSARQLGVMPDLVLDMFINGYYLNLGKTQSTDVNRPYQDKDKRGGIFDAVFTRGDQTTLLTARHDLKNKGLNEISDLIKQELTEGKALALSHTYANVRINHVINLWGADFDAEGNLIAIYVTDSDANASIGMKKYFVGRNANGKVAISAKKIEGDNIGAQVLGLFTLSLGQDIWQKLS
B8: PRT-320 (protein)
chain: MTITSVWTKGVTPPTPEDFRENNEDVLHAPYVANQGWYDITKTFDGKDNLLCGAATAGNMLHWWFDQNKEEIERYLKKHPEKQKIIFGNQELFDVKAAIDTKDSQTNSKLFDYFRDKAFPNLSARQLGVMPDLVLDMFINGYYLNLGKTQSTDVNRPYQDKDKRGGIFDAVFTRGDQTTLLTARHDLKNKGLNEISDLIKQELTEGKALALSHTYANVRINHVINLWGADFDAEGNLIAIYVTDSDANASIGMKKYFVGRNANGKVAISAKKIEGDNIGAQVLGLFTLSTGQDQWQKLS
B9: PRT-328 (protein)
chain: MTITSVWTKGVTPPTPEDFRKNNEDVLHAPYVANQGWYDITKTFDGKDNLLCGAATAGNMLHWWFDQNKEEIERYLKKHPEKQKIIFNNQELFDVKAAIDTKDSQTNSKLFNYFRDKAFPGLSARQLGVFPDLVLDMFINGYYLNLGKTQSTDVNRPYQDKDKRGGIFDAVFTRGVQTTLLTARHDLKNKGLNEISDLIKQELTEGKALALSHTYANVRINHVINLWGADFDAEGNLIAIYVTDSDANASIGMKKYFVGRNANGKVAISAKKIEGDNIGAQVLGLFTLSTGQDIWQKLS
B10: PRT-334 (protein)
chain: MTITSVWTKGVTPPTPEDFRENNEDVLHAPYVANQGWYDITKTFDGKDNLLCGAATAGNMLHWWFDQNKEEIERYLKKHPEKQKIIFGNQELFDVKAAIDTKDSQTNSKLFDYFRDKAFPGLSARQLGVFPDLVLDMFINGYYLNLGKTQSTDVNRPYQDKDKRGGIFDAVFTRGVQTTLLTARHDLKNKGLNEISDLIKQELTEGKALALSHTYANVRINHVINLWGADFDAEGELIAIYVTDSDANPSIGMKKYFVGRNANGKVAISAKKIEGDNIGAQVLGLFTLSTGQDIWQKLS
B11: PRT-327 (protein)
chain: MTITSVWTKGVTPPTPEDFRENNEDVLHAPYVANQGWYDITKTFDGKDNLLCGAATAGNMLHWWFDQNKEEIERYLKKHPEKQKIIFNNQELFDVKAAIDTKDSQTNSKLFDYFRDKAFPNLSARQLGVMPDLVLDMFINGYYLNLGKTQSTDVNRPYQDKDKRGGIFDAVFTRGDQTTLLTARHDLKNKGLNEISDLIKQELTEGKALALSHTYANVRINHVINLWGADFDAEGELIAIYVTDSDANPSIGMKKYFVGRNANGKVAISAKKIEGDNIGAQVLGLFTLSTGQDIWQKLS
B12: PRT-342 (protein)
chain: MTITSVWTKGVTPPTPEDFRENNEDVLHAPYLANQGWYDITKAFDGKDNLLCGAATAGNMLHWWFDQNKEEIERYLKKHPEKQKIIFGNQELFDVKAAIDTKDSQTNSKLFNYFRDKAFPNLSARQLGVMPDLVLDMFINGYYLNLGKTQSTDVNRPYQDKDKRGGIFDAVFTRGDQTTLLTARHDLKNKGLNEISDLIKQELTEGKALALSHTYANVSINHVINLWGADFDAEGNLEAIYVTDSDANPSIGMKKYFVGRNAHGKVAISAKKIEGDNIGAQVLGLFTLSTGQDIWQKLS
B13: PRT-350 (protein)
chain: MSQTEDSESLQRLRDIEDFQAEKKDQNVVYTKWLDGVDVKDHDFRKIVDGNSAYYATPLLNGRGWYDINKDFNRDSDKCAAAVAANMFHYWLDINRDNVDRFLRQNPEKHGIIELPDGQLKLSDFLNTYESDHGYRDKSKLFDFISENFNGPVWTDKLLDNYINGYAYNYKYGRTIEDPTKNTSKINFFKEVFNEKILTNNHSIRNQNEFSVLLIEALYTGKAIGLSYGPAGLRHSLGHIISVWGADLDADGNVVAIYVTDSDDKKLTIGDERVGLKRYKISTDDENRLRLTAYEETHNTGGQVRGLWTLDTGKYAWADYFDKTEQTGTDQAEQ

The target in the data set is pooled human IgG (human IgG1,2,3 and 4).
The protein B1 gave an Enzyme Activity Endpoint Assay (purified): Fab'2 of 261 ng/µL, an Enzyme Activity Endpoint Assay (purified): Fc of 295 ng/µL, an Enzyme Activity Endpoint Assay (purified): IgG of 109 ng/µL and an Enzyme Activity Endpoint Assay (purified): scIgG of 496 ng/µL.
The corresponding values for B2 are 703 ng/µL, 330 ng/µL, 53 ng/µL and 54 ng/µL.
Taken in the same sequence, the figures for B3 were 529 ng/µL, 398 ng/µL, 446 ng/µL and 0 ng/µL.
The corresponding values for B4 are 1080 ng/µL, 482 ng/µL, 0 ng/µL and 0 ng/µL.
Protein B5 showed an Enzyme Activity Endpoint Assay (purified): Fab'2 of 711 ng/µL, an Enzyme Activity Endpoint Assay (purified): Fc of 320 ng/µL, an Enzyme Activity Endpoint Assay (purified): IgG of 0 ng/µL and an Enzyme Activity Endpoint Assay (purified): scIgG of 0 ng/µL.
B6 yielded an Enzyme Activity Endpoint Assay (purified): Fab'2 of 955 ng/µL, an Enzyme Activity Endpoint Assay (purified): Fc of 443 ng/µL, an Enzyme Activity Endpoint Assay (purified): IgG of 0 ng/µL and an Enzyme Activity Endpoint Assay (purified): scIgG of 0 ng/µL.
On to B7, for which the Enzyme Activity Endpoint Assay (purified): Fab'2 turned out to be 670 ng/µL, the Enzyme Activity Endpoint Assay (purified): Fc came to 372 ng/µL, the Enzyme Activity Endpoint Assay (purified): IgG was determined as 32 ng/µL and the Enzyme Activity Endpoint Assay (purified): scIgG was 0 ng/µL.
The corresponding values for B8 are 778 ng/µL, 339 ng/µL, 53 ng/µL and 0 ng/µL.
Taken in the same sequence, the figures for B9 were 1000 ng/µL, 455 ng/µL, 75 ng/µL and 0 ng/µL.
With B10, the Enzyme Activity Endpoint Assay (purified): Fab'2 was determined as 59 ng/µL, the Enzyme Activity Endpoint Assay (purified): Fc is 257 ng/µL, the Enzyme Activity Endpoint Assay (purified): IgG came out at 154 ng/µL and the Enzyme Activity Endpoint Assay (purified): scIgG came out at 738 ng/µL.
The corresponding values for B11 are 460 ng/µL, 338 ng/µL, 472 ng/µL and 0 ng/µL.
The corresponding values for B12 are 15 ng/µL, 209 ng/µL, 206 ng/µL and 841 ng/µL.
Turning to B13, the Enzyme Activity Endpoint Assay (purified): Fab'2 is 520 ng/µL, the Enzyme Activity Endpoint Assay (purified): Fc stood at 243 ng/µL, the Enzyme Activity Endpoint Assay (purified): IgG came to 668 ng/µL and the Enzyme Activity Endpoint Assay (purified): scIgG came to 200 ng/µL.
